Changes are numbered by the printed parent chain. “And” between values parts separate entries of the source, which are not always exact repeats. Equal values may be shown once.
B1: mAb13458 (antibody, V domains shown)
VH: EVQLVESGGGLVQPGRSLRLSCAASGFTFDDYAMHWVRQAPGKGLEWVSGISWNSGSIGYADSVKGRFTISRDNAKNSLYLQMNSLRAEDTALYYCAKDIGITTPYWGQGTLVTVSS
VL: AIQMTQSPSSLSASVGDRVTITCRASQDIRNDLGWYQQKPGKAPKLLIYSASSLQTGVPSRFSGSGSGTDFTLTISSLHPEDFATYYCLQDYWYTWTFGQGTKVEIKR
B2: mAb13459 (antibody, V domains shown)
VH: B1 VH
VL: B1 VL with W93N, T95V
B3: mAb14234 (antibody, V domains shown)
VH: QVQLVESGGGVVQPGRSLRLSCAASGFTFSSYGIHWVRQAPGKGLEWVAIIWYDGSEKYYADSVKGRFTISRDNSKNTLFLQMNSLEAEDTAVYYCARGPDLLTGYYNYFYYGMDVWGQGTTVTVSS
VL: QSVLTQPPSVSGAPGQRVTISCTGSSSNIGIGYDVHWYQQLPGTVPKLLIYGNTNRPSGVPDRFSGSKSGTSASLAITGLQAEDEADYYCQSYDSSLSSYVFGTGTKVTVLG
B4: mAb14230 (antibody, V domains shown)
VH: EVQLVESGGGLIQPGRSLRLSCAASGFTFDDYAMHWVRQAPGKGLEWVSGISWNSVSIDYADSVKGRFTISRDNAKNSLYLQMTSLTVEDTALYYCAKAFGYETLTGSDYFAYWGPGTLVTVSS
VL: EIVLTQSPGTLSLSPGERATLSCRASQTVISTYLAWYQQKPGQSPRLLIYGASSRATGIPDRFSGSGSGTDFTLTISRLEPEDFAVYYCQQYGSSPQLTFGGGTKVEIKR
B5: mAb14232 (antibody, V domains shown)
VH: QITLKESGPTLVKPTQTLTLTCTFSGFSLSASGVGVGWIRQPPGKALEWLALIYWDDDKRYSPSLKSRLTITKDTSKNQVVLTMTNMDPVDTATYYCAQHKVATIFDYWGQGTLVTVSS
VL: QSALTQPPSASGSPGQSVTISCTATSSDVGNYNYVSWYQQHPGKAPKLMIYEVTKRPSGVPDRFSGSKSGNTASLTVSGLQAEDEADYYCSSYAGSWGVFGGGTKLTVLG
B6: mAb14247 (antibody, V domains shown)
VH: B5 VH with A31T, G33A, V80L, M87V, Q99H, K101T, V102I, A103Q, T104L
VL: QSALTQPASVSGSPGQSITISCTATSSDVGNYNYVSWYQQHPGKAPKLMIYEVSNRPSGVSNRFSGSKSGNTASLTISGLQAEDEADYYCSSYTSSSTPLVFGGGTKLTVLG
B7: mAb14235 (antibody, V domains shown)
VH: QITLKESGPTLVKPTQTLTLTCTFSGFSLNTGGVGVGWIRQPPGNALEWLALIYWDDDKRYNPSLKTRLTISKDTSKNQVVLTMTNMDPVDTATYFCAHLTIAVIVDFWGQGTLVTVSS
VL: QSALTQPASVSGSPGQSITISCTATSSDVGTYNYVSWFQHHPGKAPKLMIYEVTNRPSGVSNRFSGSKSGNTASLTISGLQAEDEADYYCSSYTTTSIVFGGGTKLTVLG

biological target: SARS-CoV-2 RBD.mmh (Spike amino acids Arg319-Phe541 with C-terminal myc-myc-6-Histidine tag) (SARS-CoV-2, UniProt P0DTC2 319-541); assay: not given

Binder	IC50
B1	0.873 nM
B2	4.43 nM
B3	4.62 nM
B4	9.97 nM
B5	18 nM
B6	0.446 nM
B7	0.234 nM

biological target: T1, SARS-COV-2 RBD-MMH (SARS-COV-2 RBD extracellular domain with C-terminal myc-myc-hexahistidine tag) (SARS-CoV-2); assay: SPR 37C, mAb captured, pH 7.4 vs pH 6.0

Binder	t½ Ratio of pH 7.4 to pH 6.0
B1	1.2
B2	1.1
B3	0.6
B4	1.1
B5	0.4
B6	1.1
B7	0.8

biological target: T1, SARS-COV-2 RBD-MMH (SARS-COV-2 RBD …); assay: not given

Binder	koff	t½ at pH 6.0	t½ at pH 7.4
B1	0.00199 s⁻¹	5.8 min	7.2 min
B2	0.00229 s⁻¹ and 0.00239 s⁻¹	4.8 min	5.1 min
B3	0.00143 s⁻¹	8.1 min	5.2 min
B4	0.00797 s⁻¹	1.4 min	1.5 min
B5	0.0124 s⁻¹	0.9 min	0.4 min
B6	0.00167 s⁻¹	6.9 min	7.3 min
B7	0.00114 s⁻¹	10.1 min	7.8 min

— patent US20260069689A1 (Regeneron, published 2026)
